Among the data in patent publication US20240035010, “COMPOSITIONS COMPRISING A VARIANT POLYPEPTIDE AND USES THEREOF” (Arbor Biotechnologies, Inc., published 2024) are indel editing activity values, retold here.

Test in all cases: cell_activity; PAM 5'-ATTG-3'
What all share (conditions): tags: pcDNA3.1 expression

The target of data set [1] is T1, variant nuclease L38G combination (P14R, D32R, I61R, E311R, L38G).
T1 chain: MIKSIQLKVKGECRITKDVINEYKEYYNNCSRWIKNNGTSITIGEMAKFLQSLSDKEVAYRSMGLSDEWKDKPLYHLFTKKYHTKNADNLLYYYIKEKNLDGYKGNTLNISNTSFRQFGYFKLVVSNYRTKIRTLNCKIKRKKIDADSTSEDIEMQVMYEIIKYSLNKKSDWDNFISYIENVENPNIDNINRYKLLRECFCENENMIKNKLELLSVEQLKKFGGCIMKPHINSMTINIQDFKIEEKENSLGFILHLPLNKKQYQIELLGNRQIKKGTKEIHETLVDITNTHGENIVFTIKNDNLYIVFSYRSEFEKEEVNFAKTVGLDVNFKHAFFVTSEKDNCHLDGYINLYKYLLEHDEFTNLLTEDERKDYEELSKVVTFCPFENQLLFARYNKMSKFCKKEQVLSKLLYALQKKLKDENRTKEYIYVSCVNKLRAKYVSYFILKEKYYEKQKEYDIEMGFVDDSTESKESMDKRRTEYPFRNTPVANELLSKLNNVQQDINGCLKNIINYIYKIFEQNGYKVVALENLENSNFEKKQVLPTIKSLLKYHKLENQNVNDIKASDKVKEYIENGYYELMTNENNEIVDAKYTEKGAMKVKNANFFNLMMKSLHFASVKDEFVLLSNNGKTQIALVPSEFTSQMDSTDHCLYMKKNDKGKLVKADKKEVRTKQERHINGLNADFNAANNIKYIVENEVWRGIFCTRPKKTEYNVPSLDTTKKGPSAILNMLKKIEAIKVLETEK

Data set [2] has as its target T2, variant nuclease D590G combination (P14R, D32R, I61R, E311R, D590G).
T2 chain: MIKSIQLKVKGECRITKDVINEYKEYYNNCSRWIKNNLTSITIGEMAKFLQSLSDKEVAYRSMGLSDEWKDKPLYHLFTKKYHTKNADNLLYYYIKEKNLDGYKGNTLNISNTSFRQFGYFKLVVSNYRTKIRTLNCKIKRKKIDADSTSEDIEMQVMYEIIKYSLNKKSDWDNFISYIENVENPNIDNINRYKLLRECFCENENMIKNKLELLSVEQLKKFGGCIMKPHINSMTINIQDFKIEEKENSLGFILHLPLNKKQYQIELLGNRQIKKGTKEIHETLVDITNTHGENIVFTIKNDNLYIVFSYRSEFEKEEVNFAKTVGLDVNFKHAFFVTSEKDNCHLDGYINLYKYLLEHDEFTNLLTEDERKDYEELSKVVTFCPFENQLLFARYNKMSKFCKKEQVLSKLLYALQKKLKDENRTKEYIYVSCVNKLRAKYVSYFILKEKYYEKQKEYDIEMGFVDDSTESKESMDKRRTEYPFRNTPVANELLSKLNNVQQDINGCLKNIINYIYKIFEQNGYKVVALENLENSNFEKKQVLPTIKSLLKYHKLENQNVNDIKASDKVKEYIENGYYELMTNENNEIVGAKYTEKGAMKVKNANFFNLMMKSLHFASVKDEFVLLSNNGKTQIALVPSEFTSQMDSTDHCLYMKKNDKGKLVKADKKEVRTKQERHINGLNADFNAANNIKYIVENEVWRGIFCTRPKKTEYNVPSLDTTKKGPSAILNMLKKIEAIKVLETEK

Data set [3] concerns the target T3, variant nuclease K35G combination (P14R, D32R, I61R, E311R, K35G).
T3 chain: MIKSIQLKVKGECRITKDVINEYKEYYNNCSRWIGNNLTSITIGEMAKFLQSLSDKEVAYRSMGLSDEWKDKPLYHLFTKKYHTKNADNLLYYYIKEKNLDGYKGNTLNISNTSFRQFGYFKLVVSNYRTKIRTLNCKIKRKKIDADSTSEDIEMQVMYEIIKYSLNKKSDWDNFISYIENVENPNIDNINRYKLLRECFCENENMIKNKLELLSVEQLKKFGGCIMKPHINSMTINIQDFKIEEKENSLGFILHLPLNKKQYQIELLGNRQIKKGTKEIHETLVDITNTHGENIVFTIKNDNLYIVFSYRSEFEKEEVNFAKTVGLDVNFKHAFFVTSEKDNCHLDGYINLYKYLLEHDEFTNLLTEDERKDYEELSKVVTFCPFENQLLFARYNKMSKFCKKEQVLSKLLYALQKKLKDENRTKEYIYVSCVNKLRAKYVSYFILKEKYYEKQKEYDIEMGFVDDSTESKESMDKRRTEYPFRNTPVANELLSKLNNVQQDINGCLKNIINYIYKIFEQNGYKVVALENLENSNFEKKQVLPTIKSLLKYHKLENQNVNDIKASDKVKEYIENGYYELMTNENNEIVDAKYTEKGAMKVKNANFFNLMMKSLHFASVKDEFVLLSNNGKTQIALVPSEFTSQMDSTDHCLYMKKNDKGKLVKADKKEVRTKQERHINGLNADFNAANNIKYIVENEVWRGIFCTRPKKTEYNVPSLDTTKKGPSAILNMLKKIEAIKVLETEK

B1: EMX1 crRNA ; EMX1 target (ssRNA ; dsDNA)
RNA: CUUGUUGUAUAUGUCCUUUUAUAGGUAUUAAACAACCCGCCGCUUCCUGAGCCAUC
DNA 1: CCGCCGCTTCCTGAGCCATC
DNA 2: GATGGCTCAGGAAGCGGCGG
With B1, the indel editing activity in data set [1] is 0.16 fold of WT; in data set [2], 7.43 fold of WT; in data set [3] it was 6.93 fold of WT.
